Experimental data: publication PMC10630886, “Downregulation of stromal syntenin sustains AML development” (EMBO Molecular Medicine, 2023)
No end group written: not given here.

T1: 6xHis-tagged GIPC1 construct (UniProt O14908 1-333)
T1 construct: also called recombinant GIPC1; source: recombinant; prepared as described previously (PMID: 27386966)
T1 sequence (looked up): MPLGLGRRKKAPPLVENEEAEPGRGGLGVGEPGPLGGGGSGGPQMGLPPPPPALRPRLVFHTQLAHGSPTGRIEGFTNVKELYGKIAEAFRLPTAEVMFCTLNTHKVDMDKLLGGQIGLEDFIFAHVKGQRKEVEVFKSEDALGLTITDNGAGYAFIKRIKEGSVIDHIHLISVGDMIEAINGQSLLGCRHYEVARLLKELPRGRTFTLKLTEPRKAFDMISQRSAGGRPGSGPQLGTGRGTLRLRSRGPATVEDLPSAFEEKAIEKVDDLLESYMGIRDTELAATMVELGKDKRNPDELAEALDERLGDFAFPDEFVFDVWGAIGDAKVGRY


What was measured:
[1] = biological target: biotinylated peptide corresponding to the last 25 amino acids of endoglin wild-type; assay: SPR; BIAcore T200, 25°C; 100 RU of biotinylated endoglin peptide immobilised on a streptavidin chip; His-tagged protein perfused (0.5 to 120 μM) at 30 μl/min in 10 mM HEPES pH 7.4, 150 mM NaCl, 0.005% Tween 20; apparent KD from equilibrium responses, Langmuir isotherm
[2] = biological target: T1, 6xHis-tagged GIPC1 construct; assay: as above; conditions: both partners purified

Kd [1] [µM] | Kd [2] [µM] | Molecule
27.1 | – | 6xHis-tagged syntenin construct (containing the two PDZ domains and the C-terminal domain) (domain or fragment)
– | 2.4 | SSESSSTNHSIGSTQSTPCSTSSMA (also: biotinylated, position not given here, endoglin (CD105), last 25 C-terminal amino acids, wild type; also called endoglin cytosolic domain; immobilized peptide corresponding to the last 25 C-terminal amino acids of wild-type endoglin) [biotinylated peptide corresponding to the last 25 amino acids of endoglin wild-type]
